In patent US20230020729A1 (Memorial Sloan Kettering, published 2023):

Target: T1, human Fc Receptor-Like 5 (FcRL5), full length, expressed on cells (human, UniProt Q96RD9 16-977)
T1 construct: also called CD307e; IRTA2
T1 sequence: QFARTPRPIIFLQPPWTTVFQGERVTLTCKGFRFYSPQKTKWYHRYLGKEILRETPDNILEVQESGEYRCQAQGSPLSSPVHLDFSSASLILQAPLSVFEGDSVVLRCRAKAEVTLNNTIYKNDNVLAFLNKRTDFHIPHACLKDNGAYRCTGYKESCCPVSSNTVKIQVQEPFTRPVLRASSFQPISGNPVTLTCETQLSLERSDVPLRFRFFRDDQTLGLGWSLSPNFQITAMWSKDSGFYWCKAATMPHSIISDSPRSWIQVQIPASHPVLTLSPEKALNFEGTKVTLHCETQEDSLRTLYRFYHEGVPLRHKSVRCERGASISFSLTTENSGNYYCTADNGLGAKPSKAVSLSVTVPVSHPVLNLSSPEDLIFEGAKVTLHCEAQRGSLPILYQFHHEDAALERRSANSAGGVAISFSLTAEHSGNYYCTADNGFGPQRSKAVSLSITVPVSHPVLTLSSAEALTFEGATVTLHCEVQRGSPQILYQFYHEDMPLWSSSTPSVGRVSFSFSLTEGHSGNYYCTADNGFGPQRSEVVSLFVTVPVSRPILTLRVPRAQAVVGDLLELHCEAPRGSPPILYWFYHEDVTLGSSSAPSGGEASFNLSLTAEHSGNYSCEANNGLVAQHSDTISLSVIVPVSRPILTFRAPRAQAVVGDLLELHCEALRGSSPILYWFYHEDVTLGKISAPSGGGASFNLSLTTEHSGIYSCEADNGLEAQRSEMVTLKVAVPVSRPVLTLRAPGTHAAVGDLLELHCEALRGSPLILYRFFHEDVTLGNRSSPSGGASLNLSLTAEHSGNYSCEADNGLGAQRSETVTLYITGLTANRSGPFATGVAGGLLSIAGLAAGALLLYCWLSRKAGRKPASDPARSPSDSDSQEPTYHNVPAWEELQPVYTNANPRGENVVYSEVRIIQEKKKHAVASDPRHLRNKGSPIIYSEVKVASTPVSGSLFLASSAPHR
Assay: scFv phage: ELISA on His-tag FcRL5, flow cytometry on FcRL5-overexpressing 3T3 and Raji cells

B1: ET200-013 scFv (scFv)
scFv: QSVVTQPPSVSGAPGQRVTISCTGSTSNIGAGYDVHWYQQLPGTAPKLLIYTNNFRPSGVPDRFSASKSGTSASLAITGLQAEDEADYYCGTWDSSLSAVVFGGGTKLTVLGSRGGGGSGGGGSGGGGSLEMAEVQLVESGTEVKKPGASVKVSCKASGYMFTSYGLNWVRQAPGQGLEWMGWISANNGKTNYAKKFQDRVTMTRDTSTSTGYMELRSLRSDDTAVYYCARHIGGSYFDRWGQGTLVTVSS
notes: VL-linker-VH; screened as scFv phage clone
  binding result: binds

B2: ET200-023 scFv (scFv)
scFv: LPVLTQPPSVSVAPGKTARITCGGNNIGSKSVHWYQQKPGQAPVLVVYADSDRPSGIPERFSGSNSGNTATLTISRVEAGDEADYYCQVWDSSSYHNYVFGTGTKVTVLGSRGGGGSGGGGSGGGGSLEMAEVQLVQSGAEVKKPGASVKVSCKASGYTFTSYGISWVRQAPGQGLEWMGWISAYNGNTNYAQKLQGRVTMTTDTSTSTAYMELSSLRSEDTAMYYCARYWGFGVSDRWGQGTLVTVSS
notes: as for B1
  binding result: binds

B3: ET200-015 scFv (scFv)
scFv: QSVVTQPPSVSVAPGKTARITCGGNNIGSKSVHWYQQKPGQAPVLVIYYDSDRPSGIPERFSGSNSGNTATLTISRVEAGDEADYYCQVWDSSSDVVFGGGTKLTVLGSRGGGGSGGGGSGGGGSLEMAEVQLVQSGAEVKKPGASVKVSCKASGYTFTSYGISWVRQAPGQGLEWMGWISAYNGNTNYAQKLQGRVTMTTDTSTSTAYMELRSLRSDDTAVYYCARWGGFGAVDHWGQGTLVTVSS
notes: as for B1
  binding result: binds

B4: ET200-039 scFv (scFv)
scFv: NFMLTQPHSVSESPGKTVTISCTRSSGSIASNYVQWYQQRPGSSPTTVIYEDNQRPSGVPDRFSGSIDSSSNSASLTISGLKTEDEADYYCQSYDSSNWVFGGGTKLTVLGSRGGGGSGGGGSGGGGSLEMAEVQLVQSGAEVKKPGSSVKVSCKASGGTFSSYAISWVRQAPGQGLEWMGGIIPIFGTANYAQKFQGRVTITADESTSTAYMELSSLRSEDTAVYYCARSNYYYNDYWGQGTLVTVSS
notes: VL-linker-VH; screened as scFv phage clone; also called ET200-39
  binding result: binds

B5: ET200-026 scFv (scFv)
scFv: NFMLTQPHSVSESPGKTVTISCTGSSGSIASNYVQWYQQRPGSAPTTVIYEDNQRPSGVPDRFSGSIDSSSNSASLTISGLKTEDEADYYCQSYDSSNWVFGGGTKLTVLGSRGGGGSGGGGSGGGGSLEMAEVQLVQSGAEVKKPGSSVKVSCKASGGTFSSYAISWVRQAPGQGLEWMGGIIPIFGTANYAQKFQGRVTITADESTSTAYMELSSLRSEDTAVYYCARNNHYYNDYWGQGTLVTVSS
notes: as for B1
  binding result: binds

B6: ET200-035 scFv (scFv)
scFv: NFMLTQPHSVSESPGKTVTISCTRSSGSIASNYVQWYQQRPGSAPTTVIYEDNQRPSGVPDRFSGSIDSSSNSASLTISGLKTEDEADYYCQSYDSTNWVFGGGTKLTVLGSRGGGGSGGGGSGGGGSLEMAQVQLVQSGAEVKKPGSSVKVSCKASGGTFSSYAISWVRQAPGQGLEWMGGIIPIFGTANYAQKFQGRVTITADESTSTAYMELSSLRSEDTAVYYCARYNYYFNDYWGQGTLVTVSS
notes: as for B1
  binding result: binds

B7: ET200-012 scFv (scFv)
scFv: QSVLTQPPSVSAAAGQKVTISCSGSDSNIGNNYVSWYQHLPGTAPKLLIYDVKNRPSGIPDRFSGSKSGSSATLGIAGLQPGDEADYYCGTWDSRLDAYVFGTGTKVTVLGSRGGGGSGGGGSGGGGSLEMAQMQLVQSGAEVKKPGASVKVSCKTSGFPFNIFGITWVRQAPGQGLEWMGWISGYNGNTDYPQKFQGRVTMSTDTSTSTAYMELRNLKSDDTAVYYCARGAYGGMDTWGQGTLVTVSS
notes: as for B1
  binding result: binds

B8: ET200-014 scFv (scFv)
scFv: SYVLTQPPSVSVAPGKTARITCGGNNIGSKSVHWYQQKPGQAPVLVIYYDSDRPSGIPERFSGSNSGNTATLTISRVEAGDEADYYCQVWDSSSDHYVFGTGTKVTVLGSRGGGGSGGGGSGGGGSLEMAEVQLVETGGGLVQPGGSLRLSCAASGFTFSSYAMSWVRQAPGKGLEWVSAISGSDGSTYYADSVKGRFTISRDNSKNTLYLQMNSLRDEDTAVYYCARSHEANLVGDWWGQGTLVTVSS
notes: as for B1
  binding result: binds

B9: ET200-021 scFv (scFv)
scFv: QSVLTQPPSVSAAPGQKVTISCSGSNSNIGNNYVSWYQQLPGTAPKLLIYDNNKRPSGIPDRFSGSRSGTSATLGITGLQTGDEADYYCGTWNTTVTPGYVFGTGTKVTVLGSRGGGGSGGGGSGGGGSLEMAEVQLVQSGAEVKKPGASVKVSCKASGYTFTSYGISWVRQAPGQGLEWMGWISAYNGNTNYAQKLQGRVTMTTDTSTSTAYMELRSLRSDDTAMYYCARSVYDLDTWGQGTLVTVSS
notes: as for B1
  binding result: binds

B10: ET200-020 scFv (scFv)
scFv: QSVVTQPPSVSAAPGQKVTISCSGSTSNIGNNDVSWYQQLPGTAPKLLIYDNNKRPSGIPDRFSGSKSGTSATLGITGLQTGDEADYYCGTWDSSVSASWVFGRGTKLTVLGSRGGGGSGGGGSGGGGSLEMAQVQLVQSGAEVKKPGASVKVSCKASGYTFTSYGISWVRQAPGQGLEWMGWISAYNGNTNYPQKLQGRVTMTTDPSTSTAYMELRSLRSDDTAVYYCARSMTSFDYWGQGTLVTVSS
notes: as for B1
  binding result: binds

B11: ET200-017 scFv (scFv)
scFv: SYVLTQPPSVSVAPGKTARITCGGNNIGSKSVHWYQQKPGQAPVLVVYDDSDRPSGIPERFSGSNSGNTATLSISRVEAGDEADYYCQVWDSSSDHTVFGTGTKVTVLGSRGGGGSGGGGSGGGGSLEMAQVQLQQWGAGLLKPSETLSLTCAVYGGSFSGYYWSWIRQPPGKGLEWIGEINHSGSTNYNPSLKSRVTISVDTSKNQFSLKLSSVTAADTAVYYCARYYPGMDMWGQGTLVTVSS
notes: as for B1
  binding result: binds

B12: ET200-018 scFv (scFv)
scFv: QAVLTQPPSTSGTPGQRVTISCSGSSSNIGRNGVNWYQQLPGAAPKVLIYNDNQRPSGVPDRVSGSQSGSSGTLAIDGLRSEDEADYYCAAWDDSLHGVVFGGGTKLTVLGSRGGGGSGGGGSGGGGSLEMAQVQLVQSGAEVKKPGASVKVSCKVSGYTLNELSMHWVRQAPGKGLEWMGGFDPEDGETIYAQKFQGRVTMTEDTSTDTAYMELSSLRSEDTAVYYCARGGYGDSWGQGTLVTVSS
notes: as for B1
  binding result: binds

B13: ET200-019 scFv (scFv)
scFv: NFMLTQPHSVSESPGKTVTISCTRSSGSIASNYVQWYQQRPGSAPTTVIYEDNQRPSGVPDRFSGSIDSSSNSASLTISGLKTEDEADYYCQSYDSSNSWVFGGGTKLTVLGSRGGGGSGGGGSGGGGSLEMAQVQLVQSGAEVKRPGSSVKVSCTASGGTFSSDAISWVRQAPGQGLEWMGGIIPMFGTANYAQKFQGRVTITADESTSTAYMELSSLRSEDTAVYYCAREGYYYPSAYLGSVLNDISSVYDEWGQGTLVTVSS
notes: as for B1
  binding result: binds

B14: ET200-022 scFv (scFv)
scFv: QSVVTQPPSVSAAPGQKVTISCSGSSSNIGNNYVSWYQQLPGTAPKLLIYDNNKRPSGIPDRFSGSKSGTSATLGITGLQTGDEADYYCGTWDSSLGAPYVFGTGTKVTVLGSRGGGGSGGGGSGGGGSLEMAEVQLVQSWGGSEQPGRSLRLSCAASGFTFDDYAMHWVRQAPGKGLEWVSGISWNSGSIGYADSVKGRFTISRDNAKNSLYLQMNSLRAEDTAMYYCARYRQVGSAYDSWGQGTLVTVSS
notes: as for B1
  binding result: binds

B15: ET200-002 scFv (scFv)
scFv: NFMLTQPHSVSESPGKTVTISCTRSSGSIASNYVQWYQQRPGSAPTTVIYEDNQRPSGVPDRFSGSIDSSSNSASLTISGLKTEDEADYYCQSYDSSNSVVFGGGTKLTVLGSRGGGGSGGGGSGGGGSLEMAQVQLVQSGTEVKKPGASVRVACKASGYPFNKYDINWVRQAPGQGLEWMGGIIPIFRTTNYAQKFQGRVTITADESTSTAYMELSSLRSEDTAVYYCAREWFYWDIWGQGTLVTVSS
notes: as for B1
  binding result: binds

B16: ET200-016 scFv (scFv)
scFv: SSELTQDPAVSVALGQTVKITCQGDSLTDYHATWYQQKPGQAPVAVIYATNNRPTGIPDRFSGSSSGNTASLTITGAQAEDEADYYCNSRDSGTDEVLFGGGTKLTVLGSRGGGGSGGGGSGGGGSLEMAEVQLVETGGGLVKPGGSLRLSCAASGFTFSSYSMNWVRQAPGKGLEWVSSISSSSSYIYYADSVKGRFTISRDNAKNSLYLQMNSLRAEDTAVYYCARGQGYDYWGQGTLVTVSS
notes: as for B1
  binding result: binds

B17: ET200-027 scFv (scFv)
scFv: QSVLTQPPSVSGAPGQGVTIPCTGSSSNIGAGYDVHWYQQLPGTAPKLLIYGNNNRPSGVPDRFSGSRSGSSASLAITGLQAEDEADYYCQSYDSSLSDVVFGGGTKVTVLGSRGGGGSGGGGSGGGGSLEMAEVQLVQSGAEVKKPGATVKISCKVSGYTFTDYYMHWVQQAPGKGLEWMGLVDPEDGETIYAEKFQGRVTITADTSTDTAYMELSSLRSEDTAVYYCARYWSYSFDYLYMPEGNDWWGQGTLVTVSS
notes: as for B1
  binding result: binds
